Results published in PMC12089766.

Experiments:
[1] = molecular target: Arabidopsis cytosolic glyceraldehyde-3-phosphate dehydrogenase (GAPC1), recombinant, His-tagged (Arabidopsis thaliana) (UniProt P25858); test: MST; GAPC1 labelled on its His tag (RED-tris-NTA 2nd Generation), 50 nM; cyclo(His-Pro) titrated; 50 mM Tris-HCl pH 8.0 with 1.6 mM NAD+; premium capillaries, Monolith X; binding from the spectral shift A670/A650
[2] = molecular target: Arabidopsis cytosolic glyceraldehyde-3-phosphate dehydrogenase (GAPC1), recombinant, His-tagged (Arabidopsis thaliana) (UniProt P25858); test: nano-differential scanning fluorimetry (nanoDSF); about 0.8 ug protein per capillary in 50 mM Tris-HCl pH 8.0; ligands at 100 uM (cyclo(Tyr-Asp) also at 500 uM and 1 mM); ramp 2 °C/min, 20 to 90 °C; shift of the melting temperature against mock
[3] = molecular target: human glyceraldehyde-3-phosphate dehydrogenase (GAPDH), recombinant, His-tagged (human) (UniProt P04406)
UniProt P04406, sequence (P04406 whole entry): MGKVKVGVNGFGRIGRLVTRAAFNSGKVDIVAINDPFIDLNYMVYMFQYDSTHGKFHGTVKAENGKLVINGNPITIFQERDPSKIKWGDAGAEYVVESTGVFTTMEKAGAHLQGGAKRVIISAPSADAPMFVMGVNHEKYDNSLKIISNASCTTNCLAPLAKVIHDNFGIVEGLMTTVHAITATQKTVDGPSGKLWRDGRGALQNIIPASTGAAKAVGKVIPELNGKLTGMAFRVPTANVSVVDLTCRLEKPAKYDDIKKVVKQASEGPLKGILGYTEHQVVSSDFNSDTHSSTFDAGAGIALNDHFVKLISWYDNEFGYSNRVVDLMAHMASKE

[4] = molecular target: Arabidopsis cytosolic glyceraldehyde-3-phosphate dehydrogenase (GAPC1), recombinant, His-tagged (Arabidopsis thaliana) (UniProt P25858)

UniProt P25858, sequence (P25858 whole entry): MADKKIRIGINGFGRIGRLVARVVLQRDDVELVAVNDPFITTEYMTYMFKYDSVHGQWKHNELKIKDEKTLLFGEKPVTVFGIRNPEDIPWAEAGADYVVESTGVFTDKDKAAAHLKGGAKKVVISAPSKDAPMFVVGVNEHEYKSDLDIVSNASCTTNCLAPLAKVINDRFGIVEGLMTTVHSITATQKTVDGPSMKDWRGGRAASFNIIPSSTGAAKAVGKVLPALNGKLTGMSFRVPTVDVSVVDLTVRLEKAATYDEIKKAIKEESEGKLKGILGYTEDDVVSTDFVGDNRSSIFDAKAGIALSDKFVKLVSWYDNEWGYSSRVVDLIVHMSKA

Kd [1] [µM]	shift of the melting temperature at 100 μM ligand [2] [°C]	IC50 of inhibition of GAPDH enzymatic activity [3] [µM]	IC50 of inhibition of GAPC1 enzymatic activity (oxidation of glyceraldehyde-3-phosphate, reduction of NAD+ to NADH) [4] [µM]	IC50 of inhibition of enzymatic activity [4] [µM]	Substance
40	> 4	70	200		cyclo(His-Pro), cyclo(L-histidyl-L-proline) (peptide)
				1500	cyclo(Tyr-Asp), cyclo(L-tyrosyl-L-aspartic acid) (peptide)
